Values of other authors in US20140295424.

Tested on: IgE (human myeloma IgE) (Homo sapiens)
Settings: CITED; KD stated for purchased aptamer D17.4, no measurement described; cited from earlier work

Sequence: GCCTGTTGTGAGCCTCCTGTCGAAGCACGTTTATCCGTCCCTCCTAGTGGCGTGCTTGAGCGTTTATTCTTGTCTCCC [IgE aptamer D17.4]
- Kd: 0.01 µM
